Reference: article PMC2782468 (Nature structural & molecular biology, 2009)

T1: wild-type CBP80 expressed alone in insect cells (human, UniProt Q09161 1-790)
T1 sequence: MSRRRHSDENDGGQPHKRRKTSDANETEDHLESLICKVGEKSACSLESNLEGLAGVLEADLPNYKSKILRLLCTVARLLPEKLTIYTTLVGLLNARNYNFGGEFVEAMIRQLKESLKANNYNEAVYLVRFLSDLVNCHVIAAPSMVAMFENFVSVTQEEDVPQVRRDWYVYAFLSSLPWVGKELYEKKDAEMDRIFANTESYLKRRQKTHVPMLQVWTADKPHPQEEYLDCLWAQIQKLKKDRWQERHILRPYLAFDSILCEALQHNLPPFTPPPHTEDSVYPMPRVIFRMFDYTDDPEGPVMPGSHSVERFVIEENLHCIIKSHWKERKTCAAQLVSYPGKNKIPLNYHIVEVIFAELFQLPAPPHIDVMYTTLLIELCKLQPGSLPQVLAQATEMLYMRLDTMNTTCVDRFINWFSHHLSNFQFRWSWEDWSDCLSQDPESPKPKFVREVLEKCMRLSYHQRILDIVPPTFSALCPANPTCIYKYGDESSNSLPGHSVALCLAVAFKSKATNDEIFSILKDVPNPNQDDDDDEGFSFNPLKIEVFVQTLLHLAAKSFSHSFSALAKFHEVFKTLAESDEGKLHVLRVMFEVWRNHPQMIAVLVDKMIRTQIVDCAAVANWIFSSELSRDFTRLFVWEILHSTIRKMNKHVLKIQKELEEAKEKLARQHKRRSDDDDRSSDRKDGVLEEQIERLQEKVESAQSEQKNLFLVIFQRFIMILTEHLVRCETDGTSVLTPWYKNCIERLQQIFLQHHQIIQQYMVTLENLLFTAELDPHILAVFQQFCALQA


Experiments:
[1] = target: T2, full-length human importin-β1 (human, UniProt Q14974 1-876); assay: native gel or EMSA
[2] = target: T1, wild-type CBP80 expressed alone in …; assay: pull-down
[3] = target: T2, full-length human importin-β1; assay: pull-down
[4] = target: T3, full-length human importin-α isoform 1 (karyopherin-α2) (human, UniProt P52292 1-529); assay: pull-down
[5] = target: T3, full-length human importin-α isoform 1 …; assay: SEC

T2 sequence (Q14974 whole entry): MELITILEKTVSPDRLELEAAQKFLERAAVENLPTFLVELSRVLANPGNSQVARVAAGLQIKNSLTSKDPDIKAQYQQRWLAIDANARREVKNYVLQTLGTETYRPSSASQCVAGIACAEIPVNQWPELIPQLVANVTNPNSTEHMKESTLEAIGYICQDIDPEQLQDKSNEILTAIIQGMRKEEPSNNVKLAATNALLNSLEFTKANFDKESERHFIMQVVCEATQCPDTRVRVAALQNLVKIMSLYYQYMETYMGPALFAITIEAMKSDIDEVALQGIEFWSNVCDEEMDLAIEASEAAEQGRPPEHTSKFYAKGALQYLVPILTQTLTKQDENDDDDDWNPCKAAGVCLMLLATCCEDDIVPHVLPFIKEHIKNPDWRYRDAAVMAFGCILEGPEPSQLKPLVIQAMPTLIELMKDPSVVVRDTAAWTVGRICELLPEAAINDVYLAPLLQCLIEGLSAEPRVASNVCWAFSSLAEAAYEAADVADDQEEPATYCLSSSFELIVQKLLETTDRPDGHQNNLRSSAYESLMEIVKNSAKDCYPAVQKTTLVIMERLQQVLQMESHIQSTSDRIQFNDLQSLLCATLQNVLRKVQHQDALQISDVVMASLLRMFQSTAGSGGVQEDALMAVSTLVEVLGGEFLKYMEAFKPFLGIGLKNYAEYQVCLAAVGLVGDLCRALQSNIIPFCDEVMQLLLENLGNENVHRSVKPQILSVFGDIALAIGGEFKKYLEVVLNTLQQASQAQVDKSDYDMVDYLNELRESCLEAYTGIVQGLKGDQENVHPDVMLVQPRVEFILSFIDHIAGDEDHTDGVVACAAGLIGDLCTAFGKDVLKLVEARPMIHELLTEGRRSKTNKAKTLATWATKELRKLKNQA

Row | Binder | binding result [1] | binding result [2] | further results
1 | CBP20 Δ126–156 (domain or fragment) MSGGLLKALRSDSYVELSQYRDQHFRGDNEEQEKLLKKSCTLYVGNLSFYTTEEQIYELFSKSGDIKKIIMGLDKMKKTACGFCFVEYYSRADAENAMRYINGTRLDDRIIRTDWDAGFKEGRQY | binds | – | –
2 | His-tagged full-length CBP20 (natural protein) MSGGLLKALRSDSYVELSQYRDQHFRGDNEEQEKLLKKSCTLYVGNLSFYTTEEQIYELFSKSGDIKKIIMGLDKMKKTACGFCFVEYYSRADAENAMRYINGTRLDDRIIRTDWDAGFKEGRQYGRGRSGGQVRDEYRQDYDAGRGGYGKLAQNQ | – | binds | binding result [3]: binds
3 | His-tagged CBP20 Δ1–14 (domain or fragment) VELSQYRDQHFRGDNEEQEKLLKKSCTLYVGNLSFYTTEEQIYELFSKSGDIKKIIMGLDKMKKTACGFCFVEYYSRADAENAMRYINGTRLDDRIIRTDWDAGFKEGRQYGRGRSGGQVRDEYRQDYDAGRGGYGKLAQNQ | – | binds | –
4 | His-tagged CBP20 Δ126–156 (domain or fragment) MSGGLLKALRSDSYVELSQYRDQHFRGDNEEQEKLLKKSCTLYVGNLSFYTTEEQIYELFSKSGDIKKIIMGLDKMKKTACGFCFVEYYSRADAENAMRYINGTRLDDRIIRTDWDAGFKEGRQY | – | binds | –
5 | His-tagged CBP20 Δ1–14Δ126–156 (domain or fragment) VELSQYRDQHFRGDNEEQEKLLKKSCTLYVGNLSFYTTEEQIYELFSKSGDIKKIIMGLDKMKKTACGFCFVEYYSRADAENAMRYINGTRLDDRIIRTDWDAGFKEGRQY | – | binds | –
6 | apo-CBC reconstituted from His-tagged CBP20 and CBP80 (complex) chain 1: MSGGLLKALRSDSYVELSQYRDQHFRGDNEEQEKLLKKSCTLYVGNLSFYTTEEQIYELFSKSGDIKKIIMGLDKMKKTACGFCFVEYYSRADAENAMRYINGTRLDDRIIRTDWDAGFKEGRQYGRGRSGGQVRDEYRQDYDAGRGGYGKLAQNQ chain 2: MSRRRHSDENDGGQPHKRRKTSDANETEDHLESLICKVGEKSACSLESNLEGLAGVLEADLPNYKSKILRLLCTVARLLPEKLTIYTTLVGLLNARNYNFGGEFVEAMIRQLKESLKANNYNEAVYLVRFLSDLVNCHVIAAPSMVAMFENFVSVTQEEDVPQVRRDWYVYAFLSSLPWVGKELYEKKDAEMDRIFANTESYLKRRQKTHVPMLQVWTADKPHPQEEYLDCLWAQIQKLKKDRWQERHILRPYLAFDSILCEALQHNLPPFTPPPHTEDSVYPMPRVIFRMFDYTDDPEGPVMPGSHSVERFVIEENLHCIIKSHWKERKTCAAQLVSYPGKNKIPLNYHIVEVIFAELFQLPAPPHIDVMYTTLLIELCKLQPGSLPQVLAQATEMLYMRLDTMNTTCVDRFINWFSHHLSNFQFRWSWEDWSDCLSQDPESPKPKFVREVLEKCMRLSYHQRILDIVPPTFSALCPANPTCIYKYGDESSNSLPGHSVALCLAVAFKSKATNDEIFSILKDVPNPNQDDDDDEGFSFNPLKIEVFVQTLLHLAAKSFSHSFSALAKFHEVFKTLAESDEGKLHVLRVMFEVWRNHPQMIAVLVDKMIRTQIVDCAAVANWIFSSELSRDFTRLFVWEILHSTIRKMNKHVLKIQKELEEAKEKLARQHKRRSDDDDRSSDRKDGVLEEQIERLQEKVESAQSEQKNLFLVIFQRFIMILTEHLVRCETDGTSVLTPWYKNCIERLQQIFLQHHQIIQQYMVTLENLLFTAELDPHILAVFQQFCALQA | – | – | binding result [4]: binds
7 | human nuclear cap-binding complex (CBC), CBP20 and CBP80 co-expressed (complex) chain 1: MSRRRHSDENDGGQPHKRRKTSDANETEDHLESLICKVGEKSACSLESNLEGLAGVLEADLPNYKSKILRLLCTVARLLPEKLTIYTTLVGLLNARNYNFGGEFVEAMIRQLKESLKANNYNEAVYLVRFLSDLVNCHVIAAPSMVAMFENFVSVTQEEDVPQVRRDWYVYAFLSSLPWVGKELYEKKDAEMDRIFANTESYLKRRQKTHVPMLQVWTADKPHPQEEYLDCLWAQIQKLKKDRWQERHILRPYLAFDSILCEALQHNLPPFTPPPHTEDSVYPMPRVIFRMFDYTDDPEGPVMPGSHSVERFVIEENLHCIIKSHWKERKTCAAQLVSYPGKNKIPLNYHIVEVIFAELFQLPAPPHIDVMYTTLLIELCKLQPGSLPQVLAQATEMLYMRLDTMNTTCVDRFINWFSHHLSNFQFRWSWEDWSDCLSQDPESPKPKFVREVLEKCMRLSYHQRILDIVPPTFSALCPANPTCIYKYGDESSNSLPGHSVALCLAVAFKSKATNDEIFSILKDVPNPNQDDDDDEGFSFNPLKIEVFVQTLLHLAAKSFSHSFSALAKFHEVFKTLAESDEGKLHVLRVMFEVWRNHPQMIAVLVDKMIRTQIVDCAAVANWIFSSELSRDFTRLFVWEILHSTIRKMNKHVLKIQKELEEAKEKLARQHKRRSDDDDRSSDRKDGVLEEQIERLQEKVESAQSEQKNLFLVIFQRFIMILTEHLVRCETDGTSVLTPWYKNCIERLQQIFLQHHQIIQQYMVTLENLLFTAELDPHILAVFQQFCALQA chain 2: MSGGLLKALRSDSYVELSQYRDQHFRGDNEEQEKLLKKSCTLYVGNLSFYTTEEQIYELFSKSGDIKKIIMGLDKMKKTACGFCFVEYYSRADAENAMRYINGTRLDDRIIRTDWDAGFKEGRQYGRGRSGGQVRDEYRQDYDAGRGGYGKLAQNQ | – | – | binding result [5]: binds
8 | full-length CBP20 (natural protein) MSGGLLKALRSDSYVELSQYRDQHFRGDNEEQEKLLKKSCTLYVGNLSFYTTEEQIYELFSKSGDIKKIIMGLDKMKKTACGFCFVEYYSRADAENAMRYINGTRLDDRIIRTDWDAGFKEGRQYGRGRSGGQVRDEYRQDYDAGRGGYGKLAQNQ | binds | – | –
9 | CBP20 Δ1–14 (domain or fragment) VELSQYRDQHFRGDNEEQEKLLKKSCTLYVGNLSFYTTEEQIYELFSKSGDIKKIIMGLDKMKKTACGFCFVEYYSRADAENAMRYINGTRLDDRIIRTDWDAGFKEGRQYGRGRSGGQVRDEYRQDYDAGRGGYGKLAQNQ | binds | – | –
